Measurements: EP1758924B1 (Council of Scientific and Industrial Research, dated 2005)

B1: phage clone displaying peptide sequence Seq ID 21 (Tyr-Pro-His-His-Phe-Lys-His-Arg-His-Ile-Pro-Ile), from the Ph.D.-12 library on bacteriophage M13 (peptide)
peptide: YPHHFKHRHIPI
notes: Tested as whole phage in the reverse phage ELISA; not shown: fused to an M13 coat protein (spacer Gly-Gly-Gly-Ser is named)
B2: phage clone displaying peptide sequence Seq ID 9 (Lys-Met-His-Ala-Thr-Asn-His), from the Ph.D.-7 library on bacteriophage M13 (peptide)
peptide: KMHATNH
notes: as for B1

How the values were obtained:
[1] = biological target: T1, bovine serum albumin (BSA) (bovine, UniProt P02769 25-607); assay: reverse phage ELISA, A405
T1 construct: Negative control target in the reverse phage ELISA
T1 sequence (P02769 25-607 limits assumed): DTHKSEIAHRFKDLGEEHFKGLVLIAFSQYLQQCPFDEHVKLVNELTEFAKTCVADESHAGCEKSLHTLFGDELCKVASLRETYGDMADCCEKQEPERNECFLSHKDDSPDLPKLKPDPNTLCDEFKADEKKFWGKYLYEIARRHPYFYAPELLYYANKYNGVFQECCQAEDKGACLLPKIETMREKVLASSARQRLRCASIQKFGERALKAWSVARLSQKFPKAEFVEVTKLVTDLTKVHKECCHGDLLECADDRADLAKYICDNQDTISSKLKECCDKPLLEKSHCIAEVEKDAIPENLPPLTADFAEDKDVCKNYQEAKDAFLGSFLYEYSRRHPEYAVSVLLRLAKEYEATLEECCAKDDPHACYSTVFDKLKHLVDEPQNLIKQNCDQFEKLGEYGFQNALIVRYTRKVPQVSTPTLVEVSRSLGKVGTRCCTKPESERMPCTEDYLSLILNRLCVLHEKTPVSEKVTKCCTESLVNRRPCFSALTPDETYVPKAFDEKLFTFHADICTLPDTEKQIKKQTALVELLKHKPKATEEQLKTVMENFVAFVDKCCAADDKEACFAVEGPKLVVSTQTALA

[2] = biological target: T2, Hsp16.3 (16 kDa alpha-crystallin like heat-shock protein of Mycobacterium tuberculosis), recombinant, 6 X His … (Mycobacterium tuberculosis); assay: reverse phage ELISA on coated Hsp16.3, anti-M13-HRP, A405
T2 construct: also called M. tuberculosis Acr (Hsp16.3) protein

Row | Binder | binding result [1] | fold binding over BSA background [2]
1 | B1 | no binding | 
2 | B2 | no binding | ~3 fold
